Patent US20070092942A1 (published 2007)

B1: EBV205 (enzyme)
chain: MSNGDWGQSQRTRGTGPVRGIRTMDVNAPGGGSGGSALRILGTASCNQAHCKFGRFAGIQCVSNCVLYLVKSFLAGRPLTSRPELDEVLDEGARLDALMRQSGILKGHEMAQLTDVPSSVVLRGGGRVHIYRSAEIFGLVLFPAQIANSAVVQSLAEVLHGSYNGVAQFILYICDIYAGAIIIETDGSFYLFDPHCQKDAAPGTP
notes: range 1-205; not shown: N-terminal His-tag from pET28
B2: EBV205 C61A (enzyme)
chain: MSNGDWGQSQRTRGTGPVRGIRTMDVNAPGGGSGGSALRILGTASCNQAHCKFGRFAGIQAVSNCVLYLVKSFLAGRPLTSRPELDEVLDEGARLDALMRQSGILKGHEMAQLTDVPSSVVLRGGGRVHIYRSAEIFGLVLFPAQIANSAVVQSLAEVLHGSYNGVAQFILYICDIYAGAIIIETDGSFYLFDPHCQKDAAPGTP
notes: range 1-205; also called EBV205 active site mutant (C61A); not shown: N-terminal His-tag from pET28

Tests used:
[1] = target: T1, HA-tagged Ub-vinylmethyl ester (UniProt P0CG47 1-75); experiment: 1 uM enzyme with 2 uM HAUbVME, SDS-PAGE silver stain and anti-HA immunoblot
T1 construct: also called HAUbVME; HA-UbVME

[2] = target: T1, HA-tagged Ub-vinylmethyl ester; experiment: HAUbVME labelling, SDS-PAGE and anti-HA immunoblot

Row | Binder | binding result [1] | binding result [2]
1 | B1 | binds | –
2 | B2 | – | no binding (tested: 2 uM HAUbVME, 1 uM enzyme)
